# Reference: the DeepSol protein solubility set
# Test: soluble on expression in E. coli; label from the status in PepcDB or PDB records
row,Sequence,soluble on expression in E. coli
1,MTFFFVFLALLSLLAFVIRKAHRNTYEAVLHKVQVGRSEDGDGAIRILQLSDLHLEKLSITPDDLYEKLKEEEIDLIALTGDFLDREESIAKLGPYLAALNALKPTYGMYAVFGNHDYVLQGEPFARLKATLEAHGCVVLQNETKTITVNGQTVNIIGIDDFYTGRSDIEKAYAGVKDGISLVLTHDPDIVPHMKDYHFDYLLSGHFHGGQIHWPKPYHLAKMSKTLTERNMIKGYHEWEGKPFYINEGLGQTGVNIRIGSKPEVTLHLLALPSRREAVKAV,not soluble
2,MSLRFITPEKRTIEELRFPTREAADNAVKKIADGLSFDDLVKAENKTLNDIKKGPFTENELPSYLSSEIFELKQGQISAVINDLQGPVIIRVTDITPAGPIPFEKVEDNIRQTLAQNRAADDIRNSYTEIENARFEGASEGHHHHHH,soluble
3,MFQASMRSPNMEPFKQQKVEDFYDIGEELGSGQFAIVKKCREKSTGLEYAAKFIKKRQSRASRRGVSREEIEREVSILRQVLHHNVITLHDVYENRTDVVLILELVSGGELFDFLAQKESLSEEEATSFIKQILDGVNYLHTKKIAHFDLKPENIMLLDKNIPIPHIKLIDFGLAHEIEDGVEFKNIFGTPEFVAPEIVNYEPLGLEADMWSIGVITYILLSGASPFLGDTKQETLANITAVSYDFDEEFFSQTSELAKDFIRKLLVKETRKRLTIQEALRHPWITPVDNQQAMVRRESVVNLENFRKQYVRRRWKLSFSIVSLCNHLTRSLMKKVHLRPDEDLRNCESDTEEDIARRKALHPRRRSSTS,soluble
4,MGSDKIHHHHHHMNDTPPPPSCARCSAVWQKSGTTNCWSNPDNRPGRPADCPSSAHGDIVASSFDEYRGESDDARLARVAARVEGLCYRKMTGSDAVVARWTRVEDTIALAKLMGWSKVGIATCIGLLDETRQLATILEAQGLEPVSVCCKAGSIDKLELGLDESDKVRPGTFEPACNPVAQAEVLNRCGTHMNIIVGLCVGHDMLFTKHSAAPVTTLVCKDRVTGHNPVAVLYGQNFYFKRLQKMPIDIPEGEE,not soluble
5,MMLFSNLIKENQKIWNAYLHHDFVKKLEDKSLKQENFLFYLKQDYIYLLNYAKCYARLALNSNTAKELRFAMKFQNYIVEGEMELHRAILSLGINADELDIKDESLVNIAYSRYMLSVGENGDFLDMLVALSACAIGYAKIGAEIINRLKNENLKDHPYKEWILTYGSENFQNEAKEFEDFVNSYTSSVGAQKFQKLSEIFHTVTRLEVAFWEHSLRMELNLLEHHHHHH,soluble
6,MIQFKDSYKHYGANGREVTALQPLNLEIRAGEVFGIIGHSGAGKSTMLRMINRLEEPSGGHLLINGQDITVLDRMGLRALRRQIGMIFQHFNLLSSYTVAGNVAFPLKLTGASDAKINARVAELLAWVGLEAHANTYPAQLSGGQKQRVGIARALATRPQILLCDEVTSALDPQTTSTVLQLLARINRELGLTIVLITHEMDVIRRICDRVAVLDTGRLVEIGLVTDVFLHPQHPTTRSFVMETEHIDTSALDQDFALVKGRIVRLTFIGTDTYLPLLGRVARETGVDYNILSGRIDRIKETPYGQLTVALSGGDPVAAQAAFAAAGIHIEELRA,not soluble
7,MNFIFDIDGTICFDGCSIDSSIKQRLFKLRQANHNVIFASARPIRDLLPVIPEFADDTLIGGNGSIISKNGQIEIVSVINEHDISLIKKIIKKYQLSYIIDDKFNYASNLDSNNELYQRIDPDGKAQSLDMDEIRNPIKAILLNIDNKDFDMIAHQLVSQSHGIELIRHYSESYIDVTARGVDKYTTIQYILGTNSDYIAFGNDHNDVHMLEHASQGYFVTNQFIEHTSFFKNKNITVIDDTIYAICEVLDRYL,not soluble
8,MLRIDCGGQDTVTKIVAERLMMKTDGRLARMLHVLVHMGLLGGRETSERIAQMLNTNPVVVRRTLGALRESGIVVSEGGRGGGWKLIRSLDQITVLDVQRALVEGQMLPAPLSKDHPNCPVERASNAVLERAHCLAEAALRTAYSETTLAQIAETAVATK,not soluble
9,MKMISTIQKKETVMVAPIPAKRGRKPAVATAPATGQVQSLTRGLKLLEWIAESNGSVALTELAQQAGLPNSTTHRLLTTMQQQGFVRQVGELGHWAIGAHAFMVGSSFLQSRNLLAIVHPILRNLMEESGETVNMAVLDQSDHEAIIIDQVQCTHLMRMSAPIGGKLPMHASGAGKAFLAQLSEEQVTKLLHRKGLHAYTHATLVSPVHLKEDLAQTRKRGYSFDDEEHALGLRCLAACIFDEHREPFAAISISGPISRITDDRVTEFGAMVIKAAKEVTLAYGGMR,soluble
10,MAVRKLWKTVVQLFSKSKSEECNTEAGTMEVSFLKYGVRGLNADCSYVKSQCIKLSECECLYTFASDVCKEDFHNSEEMKVFVVQHSQEMVDGTDLFVHAEESV,not soluble
11,MYVECLSSTTPPIDVFDYLSFFVFNKKDNKYLSIQDVEVKRFSSSKTVWGLPKAMSLETFTDPAKGFIVEGEPCEFGAHVKIASSPVPVDENLPFHKFSWSIRDFSVLKQNDCISKTFAMGGKNWTLTVYPKGDSEADNEFCKYLHLADGEVLSPGEMISVRAQLRALDPRGSKHKTVWLQQWIMAATKARGIPQSLSLADLQEAYLDEDTLNVEIECEVVNSRKMF,soluble
12,MAHHHHHHMMRCSRGCRRQLRPYYNLPSKSDHGRKMTGFLTPYRHWMWKQNELWRNVHEAQFEHLRKVYKRQWLESFRVNADEYIYKYNITKAAQLAQWEYEMQAQEKKRLEAKQMTEGRQALKKKHLDLLREFHERQFFFWYERASERLQSMNLIQYIPQSRVQEHIERELDKYVAGKSEAYPLNFVGQMPLVEDREGNIVEVPEGLLTNHVSEHPESTVKPHQPHESTSVSVEEQLLRTMASAREESLEEWIDDSRALSETIDDISREEEQRDEDTRVARSMEETDNEREISRRMYIDRGKTGSKAIFRRPTLSETDGGSASIPVGGVAASPADTSAPMRRRKKGKLDKAHALQEQQDAMIARMSAKSLKDGESSISIVKRGEIATSRGRIRDKAAIPTQEVLMQKPELAAGSVPNARISFKDKVDQLYHRGKYKQKKEDDNNPNEDL,not soluble
13,MIRRENRLRREFIFRKSLEEKQKSLEEKREKIRNALENNTKIDYNLRKDAIELAKGSDWGGQQYETDSEYRWAGAQDPKIVITTSRDPSSRLKMFAKEMKLIFPNAQRINRGHYDVKQVVQASKAQDSTDLIIFTETRGNPDGMLVCHLPFGPTAFFSMANVVMRHDIPNCGTMSEQYPHLIFDNLNSKLGHRFTTILKHLFPVPKPDSKRIITFSNSEDYISFRHHVYKTENDGEVELTEAGPRFELKPYQIKLGTLETLAAAEDEWVLRSYTNTARKRTFLSISRADDDE,not soluble
14,MLERTQVFVDTSYLLASFYNSWETGARAQLEIDLPEVVGVLGRMIEQQLKQPVQRQMWYDGIPDSGPHRYQRALRTCDGVQLRAGQLIEWGERRTQKAVDTRLVADLVLAGVRGQCSDIVLVSGDADMIPGVQEAANAGLRVHLYGFGWDSMSSQLRHCCDTTTILDPRED,not soluble
15,GPGSMASKKGGKKANGEDLEAAILRWFECEGEPATVQSLTDALGSKFGKQLVQNTLEQCLKEQKLLAKDIKKARFYFLASPAPGSNDEGSDVGSHKIDIVKQLRQLRNGVSMLSSELSVLLQAQTSSKRATTIASLVSECAALRSRLQALHVIAGKESSCVSDDVSLLIHRYKRARELWRDRKRITVCVIDAVLGDSCGPQELEDIFGLSTDEQMNLCLSGTALTLPATVSS,not soluble
16,MAHHHHHHMNIFKNIYNTEMMSNNNTVDVNMMDNNPAARLEELRTIMKKNKIDVYILINSDEHNSEIINEKDKKIVKITNYSGADGILIVTKDKPILYVNALYELQAMNELDQNLFTLRISRIDNRDEIFETISSLEFNTIAFDGKNTSVVFYEKLRKALLNAYPKKKIVEKIIYNNNFDDVNKKDDENVLNFLVLEKSLVEIKDYPVNNKTLYIHDRKYNGACAGEKIDKLKQSLMYDIKNVDNLLLSELDEIAYLLNLRGYDYQYSPLFYSYLLFQFDREEQDFSKIVFFTTVKNLPADVKNLLEINKVIVKEYEEIVPYLRDVVIPSIPKHNDDNPDFKKYDISLSPYINLMIYKLFDRKNVLLQNSPVVKMKAVKNDVEIDNMKQAHILDGLALLQFFHWCEQKRKTKELFNETEMSLRHKVDYFRSTKKNFIFPSFSTISASGPNAAVIHYECTDKTNATIKPAIYLLDSGGQYLHGTTDVTRTTHFGEPTAEEKRIYTLVLKGHLRLRKVIFASYTNSSALDFIARENLFNNFMDYNHGTGHGVGLTLNVHEGGCSIGPVGGAPLKKNMVLSNEPGYYMKDKFGVRIENMQYVISKEITDTTEYLSFDDLTMYPYEKKLLDFSLLTNQEIKELNEYHTTIRNTLLPLVKQSPQEYGESVEKYLIEITEPIAIHNN,soluble
17,MSEAHPPELKKFMDKKLSLKLNGGRHVQGILRGFDPFMNLVVDDTIEMAPGGQMNTIGMVVIRGNSIIMLEALERV,soluble
18,SNAESAAPQVHLSILATTDIHANMMDYDYYSDKETADFGLARTAQLIQKHREQNPNTLLVDNGDLIQGNPLGEYAVKYQKDDIISGTKTHPIISVMNALKYDAGTLGNHEFNYGLDFLDGTIKGADFPIVNANVKTTSGENRYTPYVINEKTLIDENGNEQKVKVGYIGFVPPQIMTWDKKNLEGQVQVQDIVESANETIPKMKAEGADVIIALAHTGIEKQAQSSGAENAVFDLATKTKGIDAIISGHQHGLFPSAEYAGVAQFNVEKGTINGIPVVMPSSWGKYLGVIDLKLEKADGSWKVADSKGSIESIAGNVTSRNETVTNTIQQTHQNTLEYVRK,soluble
19,MVREDRSTWKANYFTKLVELFEEYPKCLLVGVDNVGSKQMQEIRQAMRGHAEILMGKNTMIRKALRGHLGKNPSLEKLLPHIVENVGFVFTKEDLGEIRSKLLENRKGAPAKAGAIAPCDVKLPPQNTGMGPEKTSFFQALQIPTKIARGTIEILNDVHLIKEGDKVGASESALLNMLGVTPFSYGLVVRQVYDDGTLYTPEVLDMTTEELRKRFLSGVRNVASVSLAVNYPTLASVAHSLANGLQNMLGVAAVTDVSFKEAETIKAFIADPSKFAAAAPAAAAAPAAAAPAAKKEEPKEESDDDMGFGLFD,not soluble
20,MNMPLMIDLTNKNVVIVGGGVVASRRAQTLNQYVEHMTVISPTITEKLQNMVDNGVVIWKEKEFEPSDIVDAYLVIAATNEPRVNEAVKKALPEHALFNNVGDASNGNVVFPSALHRDKLTISVSTDGASPKLTKSIMAELEALYPPSYSSYIDFLYTCRQKIKVLDITYNEKQQLLSQIVSQEYLNHDKQAQFLAWLDVR,not soluble
21,MGMIIMVGDGMGPAYTSAYRYFQDNPDTEEIEQTVFDRLLVGMASTYPARESGYVTDSAASATALATGFKSYNGAIAVDINKRPLTTIMQMAKARGMSTGVAVTAQVNHATPAAFLTHNESRKNYEAIAADMLKSDADVILGGGRKYFSEALVSQFSAKGYQHITELAQLDSITQPKVLGLFAEVQLPWVIDDTDANTLSKLTQKSLDLLSQNEKGFVLLVEGSLIDWAGHNNDIATAMAEMQGFANAIEVVEQYIRQHPDTLLVVTADHNTGGLSIGANGEYQWDTKLPKGISASPASIATHAIAADDWQAGVNQQLGFDVNSTELQQLTNARMQGKSTLEVALKKIIDTRSYTGWTTSGHTGVDVQVFAMGPAADLFKGNQDNTHIAEKMMSLLPKVN,soluble
22,MGSDKIHHHHHHMNPLNLIECLEQKERYTYNEGLIIDFILSHTERVLHMSIYELAEATNSSTSTIVRLCKKTETSGFKEFKIRLSRDLEIHYQAIRNVDANMPFLAQDSDLLIAKKIAQLTTETVQSTQQLLTEAMLNKSIDLLLTAENILAVGVSNSYIRLTDFQTKLLRIQLFIHLIPYQAEQFYLAINATKNDVAILVSYSGNTAEIVNEARIFAEGGTPIIAITSDLNSQLAKYATVILPIPNVEHADFKVSTFSSQLAIEYILNVLYSCIFSRNFDKNYTSQKNTPTSILKF,not soluble
